# From patent publication US20140348819A1, “Methods of Treating Cancer” (Dana-Farber Cancer Institute, Inc., priority 2011, published 2014)
# Tested on: six V600E BRAF melanoma cell lines
# Test: Screening of recombinant RTK ligands for ability to confer resistance to BRAFi (PLX4720) or MEKi (PD184352) (Table 4)
# Type: cell-based, human
# Design: ability of recombinant RTK ligand to confer resistance / ability of recombinant RTK ligand to confer resistance (screening value): scale not given here
# Protocol: HGF is the only one that can substantially confer drug resistance to the cell lines.
# The complexity of the tumor microenvironment is much greater than an in vitro co-culture system. Therefore, the inventors explored whether the activation of other RTKs could result in a similar resistance as that observed with the activation of MET. To this end, six V600E BRAF melanoma cell lines were tested for their resistance to either BRAFi (PLX4720) or MEKi (PD184352) after the addition of 22 RTK ligands that have the potential of activating almost all known RTKs. […] The activation of a selected subset of these RTKs was confirmed by western blotting and by high throughput tyrosine kinase phosphorylation profiling.
molecule,measurement,setting,value
"Angiopoietin-1 (protein, UniProt Q15389 16-498, looked up) Angiopoietin-1: HIGCSNQRRSPENSGRRYNRIQHGQCAYTFILPEHDGNCRESTTDQYNTNALQRDAPHVEPDFSSQKLQHLEHVMENYTQWLQKLENYIVENMKSEMAQIQQNAVQNHTATMLEIGTSLLSQTAEQTRKLTDVETQVLNQTSRLEIQLLENSLSTYKLEKQLLQQTNEILKIHEKNSLLEHKILEMEGKHKEELDTLKEEKENLQGLVTRQTYIIQELEKQLNRATTNNSVLQKQQLELMDTVHNLVNLCTKEGVLLKGGKREEEKPFRDCADVYQAGFNKSGIYTIYINNMPEPKKVFCNMDVNGGGWTVIQHREDGSLDFQRGWKEYKMGFGNPSGEYWLGNEFIFAITSQRQYMLRIELMDWEGNRAYSQYDRFHIGNEKQNYRLYLKGHTGTAGKQSSLILHGADFSTKDADNDNCMCKCALMLTGGWWFDACGPSNLNGMFYTAGQNHGKLNGIKWHYFKGPSYSLRSTTMMIRPLDF",ability of recombinant RTK ligand to confer resistance,"A2058, PD184352 - 1 uM, ligand 1.56 ng/ml",1.02
same,ability of recombinant RTK ligand to confer resistance,"A2058, PD184352 - 1 uM, ligand 6.25 ng/ml",1.03
same,ability of recombinant RTK ligand to confer resistance,"A2058, PD184352 - 1 uM, ligand 25 ng/ml",0.96
same,ability of recombinant RTK ligand to confer resistance,"A2058, PD184352 - 1 uM, ligand 100 ng/ml",0.99
same,ability of recombinant RTK ligand to confer resistance,"A2058, PD184352 - 1 uM, ligand 400 ng/ml",0.90
same,ability of recombinant RTK ligand to confer resistance,"A2058, PLX4720 - 2 uM, ligand 1.56 ng/ml",1.02
same,ability of recombinant RTK ligand to confer resistance,"A2058, PLX4720 - 2 uM, ligand 6.25 ng/ml",1.02
same,ability of recombinant RTK ligand to confer resistance,"A2058, PLX4720 - 2 uM, ligand 25 ng/ml",0.91
same,ability of recombinant RTK ligand to confer resistance,"A2058, PLX4720 - 2 uM, ligand 100 ng/ml",0.97
same,ability of recombinant RTK ligand to confer resistance,"A2058, PLX4720 - 2 uM, ligand 400 ng/ml",0.96
same,ability of recombinant RTK ligand to confer resistance,"C32, PD184352 - 1 uM, ligand 1.56 ng/ml",1.08
same,ability of recombinant RTK ligand to confer resistance,"C32, PD184352 - 1 uM, ligand 6.25 ng/ml",1.07
same,ability of recombinant RTK ligand to confer resistance,"C32, PD184352 - 1 uM, ligand 25 ng/ml",1.02
same,ability of recombinant RTK ligand to confer resistance,"C32, PD184352 - 1 uM, ligand 100 ng/ml",1.07
same,ability of recombinant RTK ligand to confer resistance,"C32, PD184352 - 1 uM, ligand 400 ng/ml",0.98
same,ability of recombinant RTK ligand to confer resistance,"C32, PLX4720 - 2 uM, ligand 1.56 ng/ml",1.20
same,ability of recombinant RTK ligand to confer resistance,"C32, PLX4720 - 2 uM, ligand 6.25 ng/ml",1.09
same,ability of recombinant RTK ligand to confer resistance,"C32, PLX4720 - 2 uM, ligand 25 ng/ml",1.14
same,ability of recombinant RTK ligand to confer resistance,"C32, PLX4720 - 2 uM, ligand 100 ng/ml",1.08
same,ability of recombinant RTK ligand to confer resistance,"C32, PLX4720 - 2 uM, ligand 400 ng/ml",0.99
same,ability of recombinant RTK ligand to confer resistance,"Colo 829, PD184352 - 1 uM, ligand 1.56 ng/ml",0.94
same,ability of recombinant RTK ligand to confer resistance,"Colo 829, PD184352 - 1 uM, ligand 6.25 ng/ml",0.97
same,ability of recombinant RTK ligand to confer resistance,"Colo 829, PD184352 - 1 uM, ligand 25 ng/ml",0.97
same,ability of recombinant RTK ligand to confer resistance,"Colo 829, PD184352 - 1 uM, ligand 100 ng/ml",0.93
same,ability of recombinant RTK ligand to confer resistance,"Colo 829, PD184352 - 1 uM, ligand 400 ng/ml",0.97
same,ability of recombinant RTK ligand to confer resistance,"Colo 829, PLX4720 - 2 uM, ligand 1.56 ng/ml",0.93
same,ability of recombinant RTK ligand to confer resistance,"Colo 829, PLX4720 - 2 uM, ligand 6.25 ng/ml",0.97
same,ability of recombinant RTK ligand to confer resistance,"Colo 829, PLX4720 - 2 uM, ligand 25 ng/ml",0.95
same,ability of recombinant RTK ligand to confer resistance,"Colo 829, PLX4720 - 2 uM, ligand 100 ng/ml",0.94
same,ability of recombinant RTK ligand to confer resistance,"Colo 829, PLX4720 - 2 uM, ligand 400 ng/ml",1.05
same,ability of recombinant RTK ligand to confer resistance,"G-361, PD184352 - 1 uM, ligand 1.56 ng/ml",0.98
same,ability of recombinant RTK ligand to confer resistance,"G-361, PD184352 - 1 uM, ligand 6.25 ng/ml",0.96
same,ability of recombinant RTK ligand to confer resistance,"G-361, PD184352 - 1 uM, ligand 25 ng/ml",0.92
same,ability of recombinant RTK ligand to confer resistance,"G-361, PD184352 - 1 uM, ligand 100 ng/ml",0.95
same,ability of recombinant RTK ligand to confer resistance,"G-361, PD184352 - 1 uM, ligand 400 ng/ml",0.75
same,ability of recombinant RTK ligand to confer resistance,"G-361, PLX4720 - 2 uM, ligand 1.56 ng/ml",1.02
same,ability of recombinant RTK ligand to confer resistance,"G-361, PLX4720 - 2 uM, ligand 6.25 ng/ml",0.96
same,ability of recombinant RTK ligand to confer resistance,"G-361, PLX4720 - 2 uM, ligand 25 ng/ml",0.97
same,ability of recombinant RTK ligand to confer resistance,"G-361, PLX4720 - 2 uM, ligand 100 ng/ml",0.83
same,ability of recombinant RTK ligand to confer resistance,"G-361, PLX4720 - 2 uM, ligand 400 ng/ml",0.84
same,ability of recombinant RTK ligand to confer resistance,"SK-MEL-5, PD184352 - 1 uM, ligand 1.56 ng/ml",1.03
same,ability of recombinant RTK ligand to confer resistance,"SK-MEL-5, PD184352 - 1 uM, ligand 6.25 ng/ml",0.93
same,ability of recombinant RTK ligand to confer resistance,"SK-MEL-5, PD184352 - 1 uM, ligand 25 ng/ml",0.95
same,ability of recombinant RTK ligand to confer resistance,"SK-MEL-5, PD184352 - 1 uM, ligand 100 ng/ml",0.92
same,ability of recombinant RTK ligand to confer resistance,"SK-MEL-5, PD184352 - 1 uM, ligand 400 ng/ml",0.87
same,ability of recombinant RTK ligand to confer resistance,"SK-MEL-5, PLX4720 - 2 uM, ligand 1.56 ng/ml",1.05
same,ability of recombinant RTK ligand to confer resistance,"SK-MEL-5, PLX4720 - 2 uM, ligand 6.25 ng/ml",1.02
same,ability of recombinant RTK ligand to confer resistance,"SK-MEL-5, PLX4720 - 2 uM, ligand 25 ng/ml",0.98
same,ability of recombinant RTK ligand to confer resistance,"SK-MEL-5, PLX4720 - 2 uM, ligand 100 ng/ml",1.03
same,ability of recombinant RTK ligand to confer resistance,"SK-MEL-5, PLX4720 - 2 uM, ligand 400 ng/ml",1.04
same,ability of recombinant RTK ligand to confer resistance,"SK-MEL-28, PD184352 - 1 uM, ligand 1.56 ng/ml",1.09
same,ability of recombinant RTK ligand to confer resistance,"SK-MEL-28, PD184352 - 1 uM, ligand 6.25 ng/ml",1.04
same,ability of recombinant RTK ligand to confer resistance,"SK-MEL-28, PD184352 - 1 uM, ligand 25 ng/ml",1.12
same,ability of recombinant RTK ligand to confer resistance,"SK-MEL-28, PD184352 - 1 uM, ligand 100 ng/ml",0.98
same,ability of recombinant RTK ligand to confer resistance,"SK-MEL-28, PD184352 - 1 uM, ligand 400 ng/ml",0.96
same,ability of recombinant RTK ligand to confer resistance,"SK-MEL-28, PLX4720 - 2 uM, ligand 1.56 ng/ml",1.05
same,ability of recombinant RTK ligand to confer resistance,"SK-MEL-28, PLX4720 - 2 uM, ligand 6.25 ng/ml",0.96
same,ability of recombinant RTK ligand to confer resistance,"SK-MEL-28, PLX4720 - 2 uM, ligand 25 ng/ml",1.02
same,ability of recombinant RTK ligand to confer resistance,"SK-MEL-28, PLX4720 - 2 uM, ligand 100 ng/ml",0.96
same,ability of recombinant RTK ligand to confer resistance,"SK-MEL-28, PLX4720 - 2 uM, ligand 400 ng/ml",0.99
